Tested on: Escherichia coli TOP10
Test: shrunken log2 fold change of peptide-encoding DNA abundance (4.5 h post-induction vs induction); higher = less antimicrobial activity (less host growth inhibition)
Details: time post-induction: 4.5 h; library: site-saturation at positions 5, 18, 19, 20
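Note: peptides expressed intracellularly from a pBAD plasmid library in pooled LB shake-flask culture, induced with 0.3% L-arabinose, DNA abundance read by NGS, three biological replicates, DESeq2 with apeglm shrinkage.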

Sequence | shrunken log2 fold change
RRIRIRPPRLPRPRPRPLKCPRP | 0.0563
RRIRIRPPRLPRPRPRPLLGPRP | -0.175
RRIRIRPPRLPRPRPRPLLPPRP | -0.0454
RRIRIRPPRLPRPRPRPLMFPRP | -0.617
RRIRIRPPRLPRPRPRPLNLPRP | -0.597
RRIRIRPPRLPRPRPRPLNNPRP | -1.15
RRIRIRPPRLPRPRPRPLWCPRP | -0.067
RRIRIRPPRLPRPRPRPLYCPRP | -0.744
RRIRIRPPRLPRPRPRPLYDPRP | -1.02
RRIRIRPPRLPRPRPRPLYHPRP | -0.761
RRIRIRPPRLPRPRPRPLYQPRP | -0.904
RRIRIRPPRLPRPRPRPMCMPRP | -0.216
RRIRIRPPRLPRPRPRPMGAPRP | -0.341
RRIRIRPPRLPRPRPRPMGYPRP | -0.148
RRIRIRPPRLPRPRPRPMHHPRP | -0.4
RRIRIRPPRLPRPRPRPMIGPRP | -0.477
RRIRIRPPRLPRPRPRPMKNPRP | -0.359
RRIRIRPPRLPRPRPRPMLHPRP | -0.749
RRIRIRPPRLPRPRPRPMMMPRP | -0.227
RRIRIRPPRLPRPRPRPMMRPRP | 0.116
RRIRIRPPRLPRPRPRPMPLPRP | 0.124
RRIRIRPPRLPRPRPRPMSFPRP | -0.178
RRIRIRPPRLPRPRPRPMTGPRP | -0.4
RRIRIRPPRLPRPRPRPMTLPRP | 0.0505
RRIRIRPPRLPRPRPRPMVVPRP | -0.0948

Sequence | shrunken log2 fold change
RRIRIRPPRLPRPRPRPMWSPRP | 0.045
RRIRIRPPRLPRPRPRPMYKPRP | -1.13
RRIRIRPPRLPRPRPRPMYNPRP | -0.429
RRIRIRPPRLPRPRPRPMYQPRP | -0.862
RRIRIRPPRLPRPRPRPNDIPRP | -1.11
RRIRIRPPRLPRPRPRPNDVPRP | -0.0102
RRIRIRPPRLPRPRPRPNEWPRP | -0.00088
RRIRIRPPRLPRPRPRPNFQPRP | -0.417
RRIRIRPPRLPRPRPRPNFYPRP | -0.565
RRIRIRPPRLPRPRPRPNGQPRP | -0.0848
RRIRIRPPRLPRPRPRPNHKPRP | -0.857
RRIRIRPPRLPRPRPRPNHTPRP | -0.541
RRIRIRPPRLPRPRPRPNIGPRP | -0.358
RRIRIRPPRLPRPRPRPNKAPRP | 0.0028
RRIRIRPPRLPRPRPRPNKTPRP | -0.125
RRIRIRPPRLPRPRPRPNLRPRP | -0.117
RRIRIRPPRLPRPRPRPNLSPRP | -0.0917
RRIRIRPPRLPRPRPRPNMAPRP | -0.344
RRIRIRPPRLPRPRPRPNNCPRP | -0.0753
RRIRIRPPRLPRPRPRPNNGPRP | -0.589
RRIRIRPPRLPRPRPRPNPMPRP | -0.169
RRIRIRPPRLPRPRPRPNPVPRP | 0.087
RRIRIRPPRLPRPRPRPNRAPRP | 1.1
RRIRIRPPRLPRPRPRPNSMPRP | -1.23
RRIRIRPPRLPRPRPRPNTYPRP | -1.02

Sequence | shrunken log2 fold change
RRIRIRPPRLPRPRPRPNVEPRP | -0.325
RRIRIRPPRLPRPRPRPNVGPRP | 0.011
RRIRIRPPRLPRPRPRPNVLPRP | -0.349
RRIRIRPPRLPRPRPRPNVTPRP | -0.149
RRIRIRPPRLPRPRPRPNWSPRP | 0.0776
RRIRIRPPRLPRPRPRPNWYPRP | -0.519
RRIRIRPPRLPRPRPRPNYCPRP | -0.139
RRIRIRPPRLPRPRPRPPCAPRP | 0.201
RRIRIRPPRLPRPRPRPPCLPRP | -0.122
RRIRIRPPRLPRPRPRPPFKPRP | 0.228
RRIRIRPPRLPRPRPRPPFYPRP | -0.438
RRIRIRPPRLPRPRPRPPGDPRP | -0.0965
RRIRIRPPRLPRPRPRPPGEPRP | 0.0604
RRIRIRPPRLPRPRPRPPICPRP | -0.132
RRIRIRPPRLPRPRPRPPIIPRP | -0.0124
RRIRIRPPRLPRPRPRPPIMPRP | -0.494
RRIRIRPPRLPRPRPRPPIRPRP | -0.0314
RRIRIRPPRLPRPRPRPPLAPRP | 0.293
RRIRIRPPRLPRPRPRPPMFPRP | -0.181
RRIRIRPPRLPRPRPRPPMIPRP | -0.112
RRIRIRPPRLPRPRPRPPNAPRP | -0.0573
RRIRIRPPRLPRPRPRPPNQPRP | -0.0959
RRIRIRPPRLPRPRPRPPNSPRP | 0.0359
RRIRIRPPRLPRPRPRPPQLPRP | -0.122
RRIRIRPPRLPRPRPRPPRMPRP | 0.21
